Results from article PMC6742747, “A Unique Homo-Hexameric Structure of 2-Aminomuconate Deaminase in the Bacterium Pseudomonas species AP–3” (Frontiers in Microbiology, 2019).

Target: the molecule itself
Test: SEC; analytic Superdex 200 10/300 GL; 1 mg/ml; 50 mM HEPES, 150 mM NaCl, 1 mM DTT, 1 mM EDTA, 5% glycerol, pH 8.0; 0.3 ml/min, 16°C; mass calculated from the elution volume

Row | Protein | stoichiometry N
1 | 2-aminomuconate deaminase (AmnE) from Pseudomonas sp. AP-3, wild type (enzyme, UniProt Q9KWS2 1-142, looked up, 2-aminomuconate deaminase AmnE, Pseudomonas sp; AP-3; protomer of 142 residues; Hexamer made of two trimers, by crystal structure, SEC and cross-linking; the database entry may name the gene amnD; After thrombin cleavage a few vector residues may remain at the N-terminus (surmised); also called wild-type AmnE; source: E. coli BL21 (DE3) pLysS, purified (Ni-NTA, Resource Q, Superdex 75); not …) MVSKADNSAKLVEGKAKPMGSFPHVKRAGDFLFVSGTSSRRPDNTFVGAEPDDTGRPRPNIELQTREVISNIRDILQSVGADLGDVVEVCSYLVNMNDFAAYNKVYAEFFDATGPARTTVAVHQLPHPQLVIEIKVVAYKPL | 6
2 | AmnE P126A (enzyme, Pseudomonas sp. AP-3, UniProt Q9KWS2 1-142, looked up, 2-aminomuconate deaminase AmnE, Pseudomonas sp; AP-3, as m1 with P126A; The purification, including tag cleavage, is described once for the wild type and the mutants together; Hexamer by SEC; also called mutant AmnE P126A; source: E. coli BL21 (DE3) pLysS, purified (Ni-NTA, Resource Q, Superdex 75); not shown: His6, N-terminal, cleaved) MVSKADNSAKLVEGKAKPMGSFPHVKRAGDFLFVSGTSSRRPDNTFVGAEPDDTGRPRPNIELQTREVISNIRDILQSVGADLGDVVEVCSYLVNMNDFAAYNKVYAEFFDATGPARTTVAVHQLAHPQLVIEIKVVAYKPL | 6
3 | AmnE R56A (enzyme, Pseudomonas sp. AP-3, UniProt Q9KWS2 1-142, looked up, 2-aminomuconate deaminase AmnE, Pseudomonas sp; AP-3, as m1 with R56A; The purification, including tag cleavage, is described once for the wild type and the mutants together; Trimer by SEC; also called single mutant of AmnE R56A; source: E. coli BL21 (DE3) pLysS, purified (Ni-NTA, Resource Q, Superdex 75); not shown: His6, N-terminal, cleaved) MVSKADNSAKLVEGKAKPMGSFPHVKRAGDFLFVSGTSSRRPDNTFVGAEPDDTGAPRPNIELQTREVISNIRDILQSVGADLGDVVEVCSYLVNMNDFAAYNKVYAEFFDATGPARTTVAVHQLPHPQLVIEIKVVAYKPL | 3
4 | AmnEΔ49–59 (enzyme, Pseudomonas sp. AP-3, UniProt Q9KWS2 1-142, looked up, 2-aminomuconate deaminase AmnE, Pseudomonas sp; AP-3, as m1 with residues Ala49-Pro59 of loop Lp2 deleted; The purification, including tag cleavage, is described once for the wild type and the mutants together; Trimer by SEC; also called AmnEΔLp2 (residues Ala49–Pro59); truncated mutant AmnEΔ49–59; source: E. coli BL21 (DE3) pLysS, purified (Ni-NTA, Resource Q, Superdex 75); not shown: His6, …) MVSKADNSAKLVEGKAKPMGSFPHVKRAGDFLFVSGTSSRRPDNTFVGNIELQTREVISNIRDILQSVGADLGDVVEVCSYLVNMNDFAAYNKVYAEFFDATGPARTTVAVHQLPHPQLVIEIKVVAYKPL | 3
